Patent US9322000B2, “Methanol dehydrogenase enzymes from Bacillus” (Sinvent AS, priority 2012, dated 2016)
“Also recorded” adds a separate entry of the source.

Experiments:
[1] = Methanol dehydrogenase assay of purified recombinant MDH proteins (NADH production at 340 nm); format: biochemical
Procedure: (§1) Alcohol dehydrogenase activities were measured spectrophotometrically essentially as described previously (Hektor, Kloosterman et al. (2002) Chem 277(49): 46966-46973) and the reaction mixture contained: 100 mM Glycine-KOH pH 9.5 (unless otherwise stated), 5 mM MgSO4, 0.5 mM NAD^+ and 500 mM alcohol (methanol, ethanol, propanol, 1,3-propanediol, or butanol). NAD^+ was substituted with equal concentrations of NADP^+, FMN^+, and FAD^+, when indicated. The reaction mixture for measurements of formaldehyde reductase activity contained: 50 mM Potassium-phosphate buffer pH=6.7, 0.15 mM NADH, 1 mM DTT and 11.6 mM (0.1-116 mM) formaldehyde. The assay components were mixed in the cuvette and pre-warmed to 45° C., unless otherwise stated. The reactions were started by addition of 5-40 μg of the purified MDH proteins, and the production of NADH was monitored at 340 nm for 4 minutes. One unit of MDH activity was defined as the amount of enzyme needed to produce 1 μmol NADH per minute under the conditions described above. Purified Act (0.1-40 μg) or NudF (20 μg) proteins were added to the reaction mixtures as indicated in the text.
(§2) The purified MDH and Act proteins (20 μg) were used in the kinetic experiments performing the methanol dehydrogenase and the formaldehyde dehydrogenase assays essentially as described above. […] For determination of the Km for NAD^+ (Km,NAD+) and Vmax, the methanol concentration was kept constant at a saturating level (500 mM), while the concentration of NAD^+ was varied (5-1000 μM). […] Act (20 μg) was added to the reaction mixtures for determination of Kμ,MεOH and Vmax values in the presence of this activator, as indicated in the text. In general, the slopes of activity versus time were linear in the measured period (data not shown). Km and Vmax values were calculated by using nonlinear regression with the Microsoft Excel solver-tool to fit the measured data to the Michaelis-Menten equation, as described previously (Jakobsen et al., (2009) Appl Environ Microbiol 75(3): 652-661). The values obtained from the regression were then compared to the values obtained from Lineweaver-Burk and Hanes-Woolf plots to ensure that the global minimum, not a local minimum, had been found.

[2] = Substrate specificity of purified MDH proteins on alternative alcohols; format: biochemical; conditions: all alternative alcohol substrates
Procedure: FIG. 3. Catalytic activities of purified Mdh (black), Mdh2 (dark grey) and Mdh3 (light grey) on various alcohols (200 mM) tested in vitro. (A) Substrate specificity was analysed for MDHs from B. methanolicus MGA3 in vitro. Alcohol substrates were used at concentrations of 500 mM except for pentanol (300 mM) and hexanol (50 mM). The data were calculated from the mean value from two experiments which were done in triplicate. (B) Substrate specificity for MDHs from B. methanolicus PB1 was analysed in vitro. Alcohol substrates were used at concentrations of 500 mM except for pentanol (300 mM) and hexanol (50 mM). The data were calculated from the mean value from two experiments which were done in triplicate.
Alcohol dehydrogenase activities were measured spectrophotometrically essentially as described previously (Hektor, Kloosterman et al. (2002) Chem 277(49): 46966-46973) and the reaction mixture contained: 100 mM Glycine-KOH pH 9.5 (unless otherwise stated), 5 mM MgSO4, 0.5 mM NAD^+ and 500 mM alcohol (methanol, ethanol, propanol, 1,3-propanediol, or butanol). NAD^+ was substituted with equal concentrations of NADP^+, FMN^+, and FAD^+, when indicated. […] The reactions were started by addition of 5-40 μg of the purified MDH proteins, and the production of NADH was monitored at 340 nm for 4 minutes. […]

[3] = In vitro Mdh activity in crude cell extracts of recombinant E. coli; format: biochemical; conditions: −Act, expressed in E. coli, crude cell extract
Description: (§3) The genes coding for Mdh and the Mdh activator protein Act were amplified from pET21a-plasmids harboring genes from B. methanolicus strains MGA3 (mdh-MGA3, mdh2-MGA3, mdh3-MGA3 and act-MGA3) and PB1 (mdh-PB1, mdh1-PB1 and mdh2-PB1). The genes were then cloned either into the pSEVA424 plasmid (mdh genes) or in the pSEVA131 plasmid (act gene). For cloning of mdh-MGA3, mdh-PB1, mdh1-PB1 and act-MGA3, EcoRI and HindIII restrictions sites were used, while mdh2-MGA3, mdh2-PB1 and mdh3-MGA3 were cloned by using EcoRI and PstI restriction sites. The resulting expression vectors were transformed into electrocompetent wt E. coli K-12 (BW25113) and into E. coli K-12 (BW25113) with a deleted frmA gene.
(§4) Expression Experiments For expression experiments, the cells were cultivated in either Luria-Bertani (LB) medium for in vitro assays or in M9 medium for in vivo assays both containing 20 μg/ml streptomycin for pSEVA424. When Act was co-expressed the medium was supplemented with 100 μg/ml ampicillin. Expression was induced when cells reached OD 0.5 (for in vitro tests) or OD 1 (for in vivo tests) by adding 0.1 mM IPTG (final concentration) for 6 hours. Cells were then harvested by centrifugation. For in vitro assays, crude cell extract was prepared by lysing the cells in a French press following ultracentrifugation. Alternatively, cells were resuspended in M9-medium without glucose for in vivo activity measurements. Enzyme Assays
In vitro measurements of Mdh activity: For determination of Mdh activity in crude cell extracts, the Mdh dependent formation of NADH was monitored at 340 nm. The assays were performed either at 37° C. or 45° C. in prewarmed buffer solutions. The Mdh assay contained 10-20 μg enzyme, 50 mM K2HPO4-buffer, pH7.4, 2.5 mM MgCl and 0.5 mM of NAD^+ (final concentrations). After 5 min of preincubation, the reaction was started with 1 M of methanol (final concentration).

[4] = Heat stability: pre-incubation of purified MDHs at 45° C. or 60° C. prior to the enzyme assay; format: biochemical; conditions: preincubation at 60° C.; compared to the remaining MDHs
Procedure: FIG. 5. (A) Temperature stability of MGA3 Mdh, Mdh2 and Mdh3 was tested in vitro. Enzymes were incubated at 45° C. or at 60° C. prior to the enzyme assay. (B) Temperature stability of PB1 Mdh, Mdh1 and Mdh2 was tested in vitro. Enzymes were incubated at 45° C. or at 60° C. prior to the enzyme assay.
The heat stability of the six MDHs was tested by pre-incubation of the proteins at 45° C. and 60° C. and samples were taken at different time points for enzyme assays. As expected, all enzymes retained essentially all catalytic activity upon preincubations at 45° C. (FIG. 5). […] A selection of the experiments was repeated in the presence of equal amounts of purified Act, and this had no effect on temperature stability for any of the MDHs (data not shown).

[5] = Formaldehyde reductase assay of purified MDH proteins; format: biochemical; conditions: 45° C., formaldehyde reductase activity
Procedure: as §1, §2

[6] = In vivo Mdh activity in cell suspensions of recombinant E. coli (formaldehyde accumulating in supernatant); format: cell-based; conditions: 37° C., −Act; E. coli cell suspension
Description: as §3, §4
In vivo measurements of Mdh activity: For determination of Mdh activity in cell suspensions, cells were harvested after IPTG induction, washed and resuspended in M9-medium without glucose and IPTG. OD600 was set to 1 for normalization. […] The assay was started by addition of 1 M methanol and subsequent measurement of accumulating formaldehyde in the supernatant resulting from the methanol dehydrogenase catalyzed oxidation of methanol. The calculated activities were based on the assumption that 1 l of an OD1 culture contains 0.3 g biomass of which 50% is protein.

B1: Mdh2-PB1: NAD-dependent methanol dehydrogenase encoded by chromosomal gene mdh2-PB1 of B. methanolicus PB1, SEQ ID NO. 6 (protein)
chain: MTNTQSIFYIPSVNLFGPGSVNEVGTRLAGLGVKKALLVTDAGLHGLGLSEKIASIIREAGVEVLIFPKAEPNPTDKNVAEGLEVYNAENCDSIVTLGGGSSHDAGKGIALVAANGGTIYDYEGVDKSKKPMVPLIAINTTAGTGSELTRFTIITDTERKVKMAIVDKHVTPTLSINDPELMVGMPPSLTAATGLDALTHAIEAYVSTAATPITDALAIQAIKIISKYLPRAFANGKDMEAREQMAFAQSLAGMAFNNASLGYVHAIAHQFGGFYNFPHGVCNAILLPHVCRFNLISKVERFAEIAALLGENVAGLSTREAAEKGIKAIERMAKDLNIPRGFKELGAKEEDIVTLAENAMKDATALTNPRKPKLEEVIQIIKNAM
modifications: Bacillus methanolicus PB1
- Vmax, variable substrate Methanol + Act ([1]; 45° C., pH 9.5, 20 μg MDH + 20 μg Act): 0.24 U/mg
- Km ([1]; 45° C., pH 9.5, 20 μg MDH + 20 μg Act, read-out: Km, variable substrate Methanol + Act): 36 mM
- Vmax, variable substrate Methanol ([1]; 45° C., pH 9.5, absence of Act): 0.065 U/mg
- reduction of Km,MeOH in the presence of Act ([1]; Act added vs. no Act): 4 fold
- catalytic activity on alternative alcohols compared with the remaining MDHs [2]: significantly higher catalytic activity than the remaining enzymes
- In vitro activity ([3]; 37° C.): 33 mU/mg
- In vitro activity ([3]; 45° C.): 103 mU/mg
- temperature stability in vitro (in words) [4]: Higher Temperature Stabilities; also recorded: only moderate negative effects; also recorded: improved thermostability
- Vmax, variable substrate Formaldehyde [5]: 1.12 U/mg
- Km ([5]; read-out: Km, variable substrate Formaldehyde): 1.3 mM
- In vivo activity [6]: 3 mU/mg
